Laboratory results reported in publication PMC5383250.

Legend:
[1] = target: RNase J2 (Bacillus subtilis) (UniProt O31760); settings: cited from earlier work
[2] = target: E. faecalis RNase J1 (Enterococcus faecalis (strain OG1RF)); assay: SPR; Biacore T100; E. faecalis RNase J1 immobilized on a CM5 sensor surface; J2 proteins 400 to 50 nM in duplicate; fitted to the 1:1 binding model

Sequence of RNase J1 (Q45493 whole entry): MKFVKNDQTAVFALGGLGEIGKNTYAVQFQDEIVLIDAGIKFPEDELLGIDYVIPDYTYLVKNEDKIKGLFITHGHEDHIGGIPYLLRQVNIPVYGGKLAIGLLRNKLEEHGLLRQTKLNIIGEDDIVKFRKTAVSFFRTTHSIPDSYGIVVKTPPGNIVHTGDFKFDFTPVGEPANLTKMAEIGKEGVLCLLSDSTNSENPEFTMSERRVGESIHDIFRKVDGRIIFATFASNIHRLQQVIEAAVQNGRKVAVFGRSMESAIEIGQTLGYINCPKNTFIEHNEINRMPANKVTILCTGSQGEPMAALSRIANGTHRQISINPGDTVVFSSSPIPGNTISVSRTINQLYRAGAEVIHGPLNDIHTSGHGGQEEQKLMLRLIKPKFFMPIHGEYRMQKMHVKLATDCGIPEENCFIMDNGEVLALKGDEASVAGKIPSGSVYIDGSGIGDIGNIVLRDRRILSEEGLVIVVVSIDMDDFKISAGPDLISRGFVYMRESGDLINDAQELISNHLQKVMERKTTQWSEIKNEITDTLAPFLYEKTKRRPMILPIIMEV

Row | Substance | Kd [1] [nM] | Kd [2] [nM]
1 | RNase J1 (from UniProt Q45493) | 80 | –
2 | E. faecalis RNase J2 H71A (enzyme) | – | 89
3 | E. faecalis RNase J2 H69A (enzyme) | – | 81
